Experimental data reported in patent publication US20060142171A1, “Novel alkaline protease” (priority 2003, published 2006).
“And” between values parts separate entries of the source, which are not always exact repeats. Identical values can stand only once.

Legend:
casein = test: Residual protease activity after incubation (pH, temperature, detergent components); type: biochemical; settings: for Enzyme activity after incubation: 90 min at 40° C.; for Residual activity (% of original activity): 1 h at 50° C.
Experimental: The effect of pH on enzyme stability was studied by incubating the enzyme in different buffers of varying pH values at 50° C. for 1 h and then measuring the residual activity using standard assay procedure. AL protease was very stable in a broad pH range, maintaining over 90% of its original activity between pH 6 and 11, and more than 70% activity at pH 12 (FIG. 8A).
The effect of temperature on activity of the two proteases was determined by assaying enzyme activity at different temperatures in glycine-NaOH buffer, pH 10, while the thermal stability was determined by incubating the enzymes at different temperatures followed by measuring the residual activity under standard conditions. These measurements were done both in the presence and absence of 5 mM Ca^2+. […] Its optimum temperature for activity was at 70° C. (FIG. 9A), but when incubated at that temperature the enzyme was inactivated within 1 h (FIG. 10A). […] At temperature values above 50° C. Ca^2+ was absolutely required for the thermal stability of AL-89 protease (FIG. 10B).
Assay of protease activity was performed according to Ferrero et al. with some modifications. One millilitre of the reaction mixture containing 1% casein in 50 mM glycine-NaOH buffer, pH 10.0 and an appropriate amount of enzyme was incubated at 50° C. for 20 min after which the reaction was terminated by addition of 0.5 ml of trichloroacetic acid and centrifuged. 2.5 ml sodium carbonate was added to 0.5 ml supernatant followed by 0.5 ml of 1 M Folin-Ciocalteau reagent. The reaction mixture was allowed to stand for 30 min at room temperature before measuring the absorbance at 660 nm. One unit of protease activity was defined as the amount of enzyme, which released 1 μg tyrosine per min under standard assay conditions.
Effect of oxidation by H2O2 on AL protease stability was determined by residual activity measurements because of the temperature-induced decomposition of the peroxide in the calorimeter. […] Residual activity of the AL protease was also studied after incubation with sodium tripolyphosphate (STP; Sigma), sodium-Zeolite 4A (Prayon Tessenderlo, Belgium) and sodium citrate, respectively, representing some of the sequestering agents used in washing detergents. The enzyme activity was unchanged in the presence of 0.01-0.05% (w/v) Zeolite and STP, respectively, after 90 min at 40° C., and more than 80% of the original activity was retained in the presence of 0.5 M citrate (data not shown).

[1] = Differential scanning calorimetry; type: physicochemical
Experimental: The influence of different parameters including pH, calcium ions, EDTA, and detergent on thermal stability of the AL protease was investigated by differential scanning calorimetry (DSC). Comparative studies were also performed with Subtilisin Carlsberg. Thermal scans of AL protease (0.3 mg protein/ml) and subtilisin (2.5 mg protein/ml in the presence of 1 mM phenyl-methanesulfonyl fluoride (PMSF); Sigma) were performed by increasing temperature from 25° C. to 95° C. at a scan rate of 1° C. per min on a VP-DSC (MicroCal, Northampton, Mass.). The thermograms were corrected by subtracting the base line, obtained from a blank scan of the no-enzyme solution, and normalized for protein concentration. The unfolding transition of the AL protease was fitted to a two-state model. The Tm (temperature at which heat capacity change is a maximum), the calorimetric (or true) enthalpy ΔHcal (peak area), and van't Hoff (or apparent) enthalpy AHVH (calculated from the shape of thermogram) were calculated using the Origin software provided by MicroCal.

oxidized insulin B-chain = test: Hydrolysis of oxidized insulin B-chain (MALDI-TOF); type: biochemical; settings: 50° C., enzyme-substrate molar ratio of 1:100, pH 9
Experimental: To 0.38 mg of the oxidized insulin B-chain (Sigma) dissolved in 1 ml of 10 mM Tris-HCl buffer, pH 9 was added 10 μl (5.5 units) of the AL enzyme. The mixture was incubated at 50° C. for 15 min and 12 h, respectively, after which one drop (approx 40 μl) of 0.1% (v/v) TFA was added to inactivate the enzyme.
Identification of the cleavage products was performed on a matrix assisted laser desorption ionisation reflectron-type time-of-flight (MALDI-TOF) mass spectrometer (REFLEX, Bruker-Franzen Analytik; Bremen, Germany).
Cleavage of oxidized insulin B-chain by the AL protease at 50° C. was investigated using an enzyme-substrate molar ratio of 1:100. The reaction products were analyzed by MALDI-TOF mass spectrometry and identified from the mass of corresponding peptide pairs.

[2] = Calcium content by ICP-SMS; type: physicochemical; settings: after treatment with chelex
Experimental: One millilitre of the purified AL protease (3 mg protein) solution was dialyzed for 24 h at 4° C. against 1 L of 10 mM glycine-NaOH buffer, pH 10.0, pretreated for 48 h with Chelex 100 (BioRad, Hercules, Calif., USA; […]) placed in a dialysis bag. Thereafter the dialysis was repeated three times against the buffer containing Chelex 100 (1.5 g/l) for a total period of 36 h at 4° C. The buffer was prepared from deionised water and plastic containers were used throughout. The residual calcium content In the enzyme sample was determined using Inductively Coupled Plasma-Mass Spectrometry (ICP-SMS).

[3] = pre-treated with chelex, or with 5 mM Ca^2+ or 10.0 mM EDTA, pH 10.0
[4] = untreated, 10 mM glycine-NaOH buffer, pH 10.0 (subtilisin with 1 mM PMSF)

B1: AL protease: thermostable alkaline, non-Ca2+-dependent serine protease isolated from Nesterenkonia sp. nov. strain AL (DSM 15380); SEQ. ID. NO. 1 (protein, listed as Nesterenkonia sp.)
chain: QNPADSPHIGKVFFSTNQGDFVCSANIVASANQSTVATAGHCLHDGNGGQFARNFVFAPAYDYGESEHGVWAAEELVTSAEWANRGDFEHDYAFAVLETKGGTTVQQQVGTASPIAFNQPRGQYYSAYGYPAAAPFNGQELHSCHGTATNDPMGSSTQGIPCNMTGGSSGGPWFLGQGTGGAQNSVNSYGYTFLPDVMFGPYFGSGAQQNYNYAST
For B1, the “Enzyme activity after incubation” value (casein; 0.01-0.05% (w/v) STP, data not shown) was “unchanged”, the “Enzyme activity after incubation” value (casein; 0.01-0.05% (w/v) Zeolite, data not shown) was “unchanged” and the Original activity retained (casein; 0.5 M citrate, data not shown) was “more than 80%”. The “Activity, % of the original” value (casein; 1 M peroxide (H2O2) at 40° C. for 90 min) was 60%, the “Effect on activity relative to 1 M peroxide” value (casein; 1.6 M peroxide (H2O2), 40° C.) was “did not reduce the activity further” and the “Residual activity (% of original activity)” value (casein; between pH 6 and 11) was “over 90%”. For the same molecule, the “Residual activity (% of original activity)” value (casein; pH 12) was “more than 70%”, the Thermal stability (casein; 1 h incubation at 65° C., presence or absence of Ca^2+) was “very good stability” and the Initial activity retained (casein; 90 min incubation with 1% SDS at 40° C., pH 10.0) was “About 75%”. For the same molecule, the Time to inactivation (casein; incubated at 70° C.) was at most 1 h, the “Decrease in Tm” value ([1]; 1% SDS vs untreated, pH 10.0) was 1.4 °C and the “Decrease in ΔHcal” value ([1]; 1% SDS vs untreated, pH 10.0) was 4 kcal/mol. For the same molecule, the Tm ([1]; +0.1% SDS, pH 10.0) was 74.5 ± 0.03 °C, the ΔHcal ([1]; +0.1% SDS, pH 10.0) was 158 ± 0.7 kcal/mol and the Tm ([1]; +0.5% SDS, pH 10.0) was 74.1 ± 0.02 °C. It also gave a ΔHcal ([1]; +0.5% SDS, pH 10.0) of 158 ± 0.7 kcal/mol, a Tm ([1]; +1% SDS, pH 10.0) of 73.1 ± 0.02 °C and a ΔHcal ([1]; +1% SDS, pH 10.0) of 154 ± 0.6 kcal/mol. The “Mean ratio of ΔHcal to ΔHvH” value ([1]; at any given pH) was “close to unity (±0.05)”, the Tm ([1]; pH 6) was 69.7 °C and 69.7 ± 0.02 °C and the ΔHcal ([1]; pH 6) was 141 kcal/mol and 141.0 ± 0.5 kcal/mol. For the same molecule, the ΔHcal/ΔHvH ([1]; pH 6) was 0.94, the ΔHvH ([1]; pH 6) was 150.0 ± 1.2 kcal/mol and the Tm ([1]; pH 7) was 73.5 ± 0.02 °C. It also gave a ΔHcal ([1]; pH 7) of 149.0 ± 0.5 kcal/mol, a ΔHcal/ΔHvH ([1]; pH 7) of 1.02 and a ΔHvH ([1]; pH 7) of 147.0 ± 1.2 kcal/mol. The Melting temperature ([1]; pH 7-10) was “about 74 °C”, the Tm ([1]; pH 8) was 74.3 ± 0.02 °C and the ΔHcal ([1]; pH 8) was 158.0 ± 0.5 kcal/mol. The ΔHcal/ΔHvH ([1]; pH 8) was 0.93, the ΔHvH ([1]; pH 8) was 171.0 ± 1.2 kcal/mol and the Tm ([1]; pH 9) was 74.5 ± 0.02 °C. It also gave a ΔHcal ([1]; pH 9) of 157.5 ± 0.5 kcal/mol, a ΔHcal/ΔHvH ([1]; pH 9) of 1.02 and a ΔHvH ([1]; pH 9) of 155.0 ± 1.3 kcal/mol. The Tm ([1]; pH 10) was 74.5 ± 0.03 °C, the ΔHcal ([1]; pH 10) was 158 kcal/mol and 158.0 ± 0.5 kcal/mol and the ΔHcal/ΔHvH ([1]; pH 10) was 0.95. For the same molecule, the ΔHvH ([1]; pH 10) was 167.0 ± 1.7 kcal/mol, the Tm ([1]; pH 11) was 72.0 °C and 72.6 ± 0.02 °C and the ΔHcal ([1]; pH 11) was 142 kcal/mol and 141.5 ± 0.5 kcal/mol. The ΔHcal/ΔHvH ([1]; pH 11) was 1.01, the ΔHvH ([1]; pH 11) was 141.0 ± 1.3 kcal/mol and the “Melting temperature, Tm” value ([1]; pH range of 8.0-10.0) was “around 74 °C”. For the same molecule, the “Melting profile and denaturation temperature” value [1, 3] was “unaltered”, the ΔHcal [1, 3] was “around 158±0.5 kcal/mol” and the Tm [1, 4] was 74.5 ± 0.03 °C. For the same molecule, the ΔHcal [1, 4] was 158 ± 0.6 kcal/mol, the “Initial cleavage site in oxidized insulin B-chain” value (oxidized insulin B-chain) was “Leu^15-Ty^16” and the “Ca^2+ content” value [2] was 0.109 mol/mol.
